The record followed here is article PMC6834283, “Duplicate divergence of two bacterial small heat shock proteins reduces the demand for Hsp70 in refolding of substrates” (PLoS Genetics, 2019).

Assay [1] deals with T1, C-His-tagged luciferase, aggregated on the BLI sensor (firefly, UniProt P08659 1-550 = luciferase).
T1 construct: firefly luciferase with a C-terminal His tag, used only in the BLI experiments; An anchoring layer was immobilised in 6 M urea on Ni-NTA sensors; A top aggregate layer was then formed at 44°C for 10 min; also called aggregated luciferase; immobilized luciferase aggregates; source: purified (Ni-NTA agarose); not shown: His tag, C-terminal, kept
Briefly: BLI; aggregated C-His-tagged luciferase immobilised on Ni-NTA sensors (BLItz); 5 μM sHsps (1.66 μM IbpAEc with 3.34 μM IbpBEc for IbpABEc) heat-activated at 44°C for 5 min; room temperature, buffer D (50 mM Tris-HCl pH 7.5, 150 mM KCl, 20 mM Mg acetate, 2 mM DTT); 10 min binding, 1 h dissociation in buffer. The conditions noted are these: both partners purified.

In assay [2] the target is T2, firefly luciferase, thermally denatured (firefly, UniProt P08659 1-550 = luciferase).
T2 construct: firefly luciferase (Promega), used as the aggregating substrate; Denatured at 44°C for 10 min in the presence of the sHsps; The partner is the unfolded, aggregating protein, not the native enzyme; source: bought: Promega
Description: co-sedimentation; sHsp-substrate assemblies isolated on a glycerol gradient, incubated 45 min at room temperature with buffer or with limiting or saturating DnaK/DnaJ/GrpE, then a second 10-60% glycerol gradient; pooled top, middle and bottom fractions by Western blot with IbpA antibodies. The following applies: both partners purified.

T1 sequence (P08659 whole entry): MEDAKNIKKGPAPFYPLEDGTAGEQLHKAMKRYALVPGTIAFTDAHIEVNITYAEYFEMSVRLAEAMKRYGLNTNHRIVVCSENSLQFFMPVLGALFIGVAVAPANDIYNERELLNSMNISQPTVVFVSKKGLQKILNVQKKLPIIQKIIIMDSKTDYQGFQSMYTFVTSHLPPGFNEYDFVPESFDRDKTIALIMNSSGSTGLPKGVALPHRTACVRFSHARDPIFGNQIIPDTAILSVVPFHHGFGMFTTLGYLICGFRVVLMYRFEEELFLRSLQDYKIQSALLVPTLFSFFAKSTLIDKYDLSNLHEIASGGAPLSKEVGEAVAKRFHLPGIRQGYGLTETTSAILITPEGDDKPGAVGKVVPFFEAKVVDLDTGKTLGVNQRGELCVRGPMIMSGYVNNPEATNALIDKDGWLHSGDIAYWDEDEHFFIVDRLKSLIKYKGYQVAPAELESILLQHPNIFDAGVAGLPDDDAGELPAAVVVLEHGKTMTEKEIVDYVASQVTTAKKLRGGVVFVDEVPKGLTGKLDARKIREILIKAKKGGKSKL
T2 sequence (P08659 whole entry): as above

B1: IbpA from Escherichia coli (natural protein, E. coli, UniProt P0C054 1-137, looked up)
chain: MRNFDLSPLYRSAIGFDRLFNHLENNQSQSNGGYPPYNVELVDENHYRIAIAVAGFAESELEITAQDNLLVVKGAHADEQKERTYLYQGIAERNFERKFQLAENIHVRGANLVNGLLYIDLERVIPEAKKPRRIEIN
notes: small heat shock protein IbpA, E. coli; Forms large undefined oligomers; also called IbpAEc; source: purified as described previously [23]
Consider B1, for which the binding result in assay [1] and in assay [2] was “binds” throughout.

B2: IbpABEc (IbpAEc and IbpBEc used together, two-sHsp system of E. coli) (complex)
chain 1: B1 chain
chain 2: MRNFDLSPLMRQWIGFDKLANALQNAGESQSFPPYNIEKSDDNHYRITLALAGFRQEDLEIQLEGTRLSVKGTPEQPKEEKKWLHQGLMNQPFSLSFTLAENMEVSGATFVNGLLHIDLIRNEPEPIAAQRIAISERPALNS
notes: small heat shock protein IbpA, E. coli; as m1; small heat shock protein IbpB, E. coli; as m2; source: the two purified proteins (as described previously [23]) mixed at about 1:2
Consider B2, for which the binding result in assay [1] and in assay [2] was “binds” throughout.
